The record followed here is patent US20100298225A1, “PEPTIDE GAP JUNCTION MODULATORS” (priority 2007, published 2010).

Test [1] concerns the target T1, carboxyl terminal domain (CT) of Cx43 (Rattus norvegicus, UniProt P08050).
T1 construct: GST (N, cleaved yes); made in house; host or cells: E. coli BL-21
Kind of test: Peptide binding to Cx43CT determined using surface plasmon resonance (SPR). To be noted: for SPR respons: immobilised recombinant Cx43CT; for SPR data normalised on Mw: value = (SPRrespons*100)/Mw. The procedure:
277(39):36706-36714 (2002), which is hereby incorporated by reference in its entirety. Briefly, cDNA derived from rat Cx43 was inserted into pGEX-6P-2 (Amersham) and expressed in E. coli (BL-21). The resultant GST-fusion protein was cleaved from the GST PreScission Protease® (Amersham Biosciences). The recombinant product after cleavage contained the sequence 255-382 of rCx43 preceded by four additional amino acids (GPLG). Protein concentration was measured using the Bio-Rad DC Protein Assay. Protein purity was assessed by SDS-PAGE.
Recombinant Cx43CT was covalently bound to a carboxylmethyl dextran matrix (Salamon et al., “Surface Plasmon Resonance Spectroscopy as a Tool for Investigating the Biochemical and Biophysical Properties of Membrane Protein Systems. II: Applications to Biological Systems,” Biochim. Biophys. Acta 1331(2):131-152 (1997), which is hereby incorporated by reference in its entirety). Specific peptides were presented and, when feasible, dissociation constants (KD) were calculated from the time course of binding and unbinding of the ligand, using a 1:1 (Langmuir) association and dissociation kinetic model (Biacore software package). In both phases (association and dissociation), the first 5-8 seconds of recording were not included in the fit, to avoid artifacts resulting from peptide distribution within the flow cells (Lang et al., “Surface Plasmon Resonance as a Method to Study the Kinetics and Amplitude of Protein-protein Binding,” in PRACTICAL METHODS IN CARDIOVASCULAR RESEARCH 936-947 (Stefan Dhein, Friedrich Wilhelm Mohr & Mario Delmar eds., 2005), which is hereby incorporated by reference in its entirety).
The peptides shown in table 2 and 3 were tested for binding to the carboxyl terminal domain (CT) of Cx43 using Surface Plasmon Resonance (“SPR”). SPR is a method that was used to identify the original RXPE sequence (Shibayama et al., “Identification of a Novel Peptide that Interferes with the Chemical Regulation of Connexin-43,” Circ. Res. 98:1365-72 (2006)). The amplitude of the response is also a function of the mass of the ligate, and the normalized data according to the individual peptide Mw's are shown in table 3.

Test [2] has as its target T2, Cx43-expressing N2a cells (Rattus norvegicus, UniProt P08050).
T2 construct: expressed in transfected cells; host or cells: N2a (neuroblastoma) cells
Kind of test: Dual patch clamp: octanol-induced uncoupling, junctional conductance between cell pairs. Type of test: cell-based. The procedure:
Experiments were conducted on N2a (Neuroblastoma) cells. Cx43 was expressed either in a lac-switch stable system (induced by 0.1-1.0 mM of IPTG (Zhong et al., “LacSwitch II Regulation of Connexin43 cDNA Expression Enables Gap-junction Single-channel Analysis,” Biotechniques 34(5):1034-1034, 1041-1044, 1046 (2003), which is hereby incorporated by reference in its entirety)) or transiently using an IRES plasmid coding for eGFP (Seki et al., “Modifications in the Biophysical Properties of Connexin43 Channels by a Peptide of the Cytoplasmic Loop Region,” Circ. Res. 95(4):e22-e28 (2004); Seki et al., “Loss of Electrical Communication, but Not Plaque Formation, After Mutations in the Cytoplasmic Loop of Connexin43,” Heart Rhythm. 1(2):227-233 (2004), which are hereby incorporated by reference in their entirety). M257 (a mutant of Cx43 truncated at amino acid 257 (Morley et al., “Intramolecular Interactions Mediate pH Regulation of Connexin43 Channels,” Biophys. J. 70(3):1294-1302 (1996), which is hereby incorporated by reference in its entirety)) was transiently expressed in N2a cells also using an eGFP-containing IRES plasmid. Cells were placed on the stage of an inverted microscope equipped for epifluorescence (Nikon Diaphoto200, Filter: 520 to 560 nm). Junctional current (I) was recorded from eGFP-positive cell pairs in a dual-whole-cell voltage clamp configuration (holding potentials: −40 mV; transjuctional voltage, Vj, +[…]; step duration, 10-30 seconds). Patch pipettes were filled with a cesium-containing solution (Seki et al., “Modifications in the Biophysical Properties of Connexin43 Channels by a Peptide of the Cytoplasmic Loop Region,” Circ. Res. 95(4):e22-e28 (2004); Seki et al., “Loss of Electrical Communication, but Not Plaque Formation, After Mutations in the Cytoplasmic Loop of Connexin43,” Heart Rhythm. 1(2):227-233 (2004), which are hereby incorporated by reference in their entirety). For the low pH experiments, HEPES was replaced by MES (10 mM). Pipette resistance was 4.0-6.0MΩ. Synthetic peptides were diluted in the pipette solution to a final concentration of 0.1 mM. During recording, cells were kept at room temperature in a cesium-containing solution (Seki et al., “Modifications in the Biophysical Properties of Connexin43 Channels by a Peptide of the Cytoplasmic Loop Region,” Circ. Res. 95(4):e22-e28 (2004); Seki et al., “Loss of Electrical Communication, but Not Plaque Formation, After Mutations in the Cytoplasmic Loop of Connexin43,” Heart Rhythm. 1(2):227-233 (2004), which are hereby incorporated by reference in their entirety). For some experiments, octanol (2.0 mM) was superfused during recording. Data acquisition and recording, and criteria for single channel detection were as reported in Seki et al., “Modifications in the Biophysical Properties of Connexin43 Channels by a Peptide of the Cytoplasmic Loop Region,” Circ. Res. 95(4):e22-e28 (2004) and Seki et al., “Loss of Electrical Communication, but Not Plaque Formation, After Mutations in the Cytoplasmic Loop of Connexin43,” Heart Rhythm. 1(2):227-233 (2004), which are hereby incorporated by reference in their entirety.
Compounds were tested for their ability to interfere with octanol-induced uncoupling. Compounds are tested for their ability to interfere with acidification induces uncoupling.
Experiments were modeled after those described in Shibayama et al (2006). Junctional conductance between Cx43-expressing N2a cell pairs was assessed using conventional dual patch clamp. Peptides were diluted in the patch pipette solution and the cells will be exposed either to octanol or to a low intracellular pH. Control experiments were carried out in the absence of the compound. The results are shown in FIGS. 3A-E, which are graphs of the time course of octanol-induced changes in coupling recorded from Cx43-expressing N2a cells. FIGS. 3A-E relate to peptides 2517, 2518, 2529, 2520 and 2624 respectively. […]

Entries after “also recorded” stand apart in the source; their conditions may differ.

T2 sequence (P08050 whole entry): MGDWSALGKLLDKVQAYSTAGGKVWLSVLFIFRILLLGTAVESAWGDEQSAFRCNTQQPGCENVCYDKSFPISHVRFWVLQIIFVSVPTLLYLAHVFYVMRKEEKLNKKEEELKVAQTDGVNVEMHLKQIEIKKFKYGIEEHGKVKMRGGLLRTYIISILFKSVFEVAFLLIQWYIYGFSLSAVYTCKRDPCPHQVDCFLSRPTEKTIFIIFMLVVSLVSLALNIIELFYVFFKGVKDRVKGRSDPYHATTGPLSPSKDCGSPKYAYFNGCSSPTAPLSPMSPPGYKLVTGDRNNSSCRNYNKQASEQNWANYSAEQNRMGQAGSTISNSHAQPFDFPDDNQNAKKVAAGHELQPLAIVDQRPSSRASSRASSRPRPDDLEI
T1 sequence (P08050 255-382): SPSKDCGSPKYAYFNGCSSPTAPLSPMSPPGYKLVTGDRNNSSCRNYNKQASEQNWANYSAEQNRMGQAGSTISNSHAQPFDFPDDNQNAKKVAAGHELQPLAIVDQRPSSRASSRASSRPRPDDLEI

For the substance “Ac-Arg-Arg-Asn-Tyr-Ala-Val-Pro-Phe-Arg-Arg-Asn-Tyr-NH2 (Ac-RRNYAVPFRRNY-NH2) [Compound 2511]”, the SPR respons in test [1] (peptide 25 uM) is given as 16.2 arbitrary units; in test [1] (peptide 100 uM), 90.5 arbitrary units; in test [1] (peptide 250 uM) it was 214.2 arbitrary units; in test [1] (peptide 500 uM) it was 389.6 arbitrary units; in test [1] (peptide 1 mM), 691.5 arbitrary units.
For “Ac-Arg-Arg-Asn-Tyr-Gly-Gly-Gly-Arg-Arg-Asn-Tyr-NH2 (Ac-RRNYGGGRRNY-NH2) [Compound 2509]” the same measures were 21.5 arbitrary units, 62.5 arbitrary units, 148.5 arbitrary units, 280.8 arbitrary units and 478.9 arbitrary units.
For “Ac-Arg-Arg-Asn-Tyr-Gly-Gly-Gly-Ser-Ala-Val-Pro-Phe-Tyr-Arg-Arg-Asn-Tyr-NH2 (Ac-RRNYGGGSAVPFYRRNY-NH2) [Compound 2508]” the same measures were 31.1 arbitrary units, 121.9 arbitrary units, 284.6 arbitrary units, 546.8 arbitrary units and 1024.5 arbitrary units.
With “Ac-Arg-Arg-Asn-Tyr-Gly-Gly-Gly-Ser-Ala-Val-Pro-Phe-Tyr-Ser-His-Ser-Arg-Arg-Asn-Tyr-Gly-Gly-Gly-Ser-Ala-Val-Pro-Phe-Tyr-Ser-His-Ser-Arg-Arg-Asn-Tyr-Gly-Gly-Gly-Ser-Ala-Val-Pro-Phe-Tyr-Ser-His-Ser-Arg-Arg-Asn-Tyr-NH2 (Ac-RRNYGGGSAVPFYSHSRRNYGGGSAVPFYSHSRRNYGGGSAVPFYSHSRRNY-NH2) [Compound 2372]”, the “Ability to re-open gap junctions closed by the uncoupler (revert uncoupled cells to coupled)” value in test [2] (0.1 mM peptide in internal pipette solution, octanol superfusion) is reported as “able to revert uncoupled cells to couple cells; also recorded: re-open gap junctions that were initially closed by the uncoupler”. For the same substance, the “Effect on octanol-induced uncoupling” value in test [2] (0.1 mM peptide in internal pipette solution, octanol superfusion, Vj 60 mV) is listed as “prevented octanol-induced uncoupling”. In addition, in test [2] (0.1 mM peptide in pipette, Gj relative to value before octanol, N=7 pairs), the “Average junctional conductance (Gj) as a function of time after onset of octanol” value was “a slight decrease in Gj was apparent; also recorded: decreased at first and then increased”. For the same substance, the “Decrease in Gj three minutes after onset of octanol” value in test [2] (junctional current traces of a cell pair, peptide in internal pipette solution) is given as “no or only a minor decrease in Gj”. The “Cell pairs that remained coupled / uncoupled following onset of octanol superfusion” value in test [2] (seven cell pairs, peptide in pipette, uncoupling = zero junctional current at 60-mV pulse) is on record as “none of the cell pairs exposed to 2372 uncoupled”.
In the case of “Ac-Arg-Arg-Asn-Tyr-Gly-Gly-Ser-Ala-Val-Pro-Phe-Tyr-Ser-His-Arg-Arg-Asn-Tyr-NH2 (Ac-RRNYGGSAVPFYSHRRNY-NH2) [Compound 2510]”, the SPR respons in test [1] (peptide 25 uM) is listed as 40.3 arbitrary units; in test [1] (peptide 100 uM), 176.2 arbitrary units; in test [1] (peptide 250 uM), 331.5 arbitrary units; in test [1] (peptide 500 uM), 643.3 arbitrary units; in test [1] (peptide 1 mM), 1188 arbitrary units.
Take “Ac-Arg-Arg-Asn-Tyr-NH2 (Ac-RRNY-NH2) [Compound 2498]”: in test [1] (peptide 500 uM), the SPR respons came out at 50.9 arbitrary units and the “SPR data normalised on Mw” value is on record as 7.9. In test [1] (peptide 1 mM), the SPR respons is 91 arbitrary units and the “SPR data normalised on Mw” value is 14.0.
As for “Ac-Arg-Arg-Asn-Tyr-Ser-Ala-Val-Pro-Phe-Tyr-Ser-His-Ser-Arg-Arg-Asn-Tyr-NH2 (Ac-RRNYSAVPFYSHSRRNY-NH2) [Compound 2506]”, the SPR respons in test [1] (peptide 25 uM) amounted to 51.7 arbitrary units; in test [1] (peptide 100 uM), 117.2 arbitrary units; in test [1] (peptide 250 uM), 327 arbitrary units; in test [1] (peptide 500 uM), 561.8 arbitrary units; in test [1] (peptide 1 mM), 1172.8 arbitrary units.
For “Ac-Arg-Arg-Asn-Tyr-Ser-His-Ser-Arg-Arg-Asn-Tyr-NH2 (Ac-RRNYSHSRRNY-NH2) [Compound 2507]” the same measures were 42.3 arbitrary units, 113.5 arbitrary units, 254.2 arbitrary units, 438.5 arbitrary units and 703.2 arbitrary units.
The like results for “Ac-Arg-Arg-Asn-Tyr-Val-Pro-Arg-Arg-Asn-Tyr-NH2 (Ac-RRNYVPRRNY-NH2) [Compound 2512]” were, in that order, 14.8 arbitrary units, 50.7 arbitrary units, 117.2 arbitrary units, 227.3 arbitrary units and 394.7 arbitrary units.
The like results for “Ac-Tyr-Asn-Arg-Arg-Gly-Gly-Gly-Ser-Ala-Val-Pro-Phe-Tyr-Ser-His-Ser-Tyr-Asn-Arg-Arg-NH2 (Ac-YNRRGGGSAVPFYSHSYNRR-NH2) [Compound 2496]” were, in that order, 67.7 arbitrary units, 155.9 arbitrary units, 358.1 arbitrary units, 738.6 arbitrary units and 1402 arbitrary units.
On to “Ac-Tyr-Asn-Arg-Arg-NH2 (Ac-YNRR-NH2) [Compound 2499]”, for which, in test [1] (peptide 1 mM), the SPR respons stood at 69.4 arbitrary units and the “SPR data normalised on Mw” value is on record as 10.7.
